Laboratory results as given in patent publication US20180037644A1 (Pfizer, published 2018).
Where two headings read alike, the source gives them in different places.

Legend:
Test in all cases: cell-based or functional assay
human IL-33 (mm2) [1] = target: T1, human IL-33 (mm2) (human, UniProt O95760 112-270)
T1 chain: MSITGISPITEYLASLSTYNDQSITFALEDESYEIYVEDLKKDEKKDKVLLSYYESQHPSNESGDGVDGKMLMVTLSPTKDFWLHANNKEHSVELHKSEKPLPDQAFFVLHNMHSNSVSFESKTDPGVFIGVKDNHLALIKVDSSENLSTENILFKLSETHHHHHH

human IL-33 WT (R&D) [2] = target: T2, human IL-33 WT (R&D) (human, UniProt O95760 112-270)
T2 sequence: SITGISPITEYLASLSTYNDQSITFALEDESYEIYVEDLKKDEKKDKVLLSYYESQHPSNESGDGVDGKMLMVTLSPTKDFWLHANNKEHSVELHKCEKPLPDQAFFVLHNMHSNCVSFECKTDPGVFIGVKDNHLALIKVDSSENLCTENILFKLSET

[3] = target: T3, cynomolgus monkey IL-33 (cys mut) (cynomolgus monkey)
T3 chain: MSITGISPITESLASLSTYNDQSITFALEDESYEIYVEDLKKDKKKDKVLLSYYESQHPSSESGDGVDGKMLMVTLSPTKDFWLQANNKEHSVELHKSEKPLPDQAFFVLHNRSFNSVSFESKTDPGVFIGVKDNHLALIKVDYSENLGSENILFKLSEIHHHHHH

[4] = target: T4, wild-type cynomolgus monkey IL-33 (cynomolgus monkey)
T4 chain: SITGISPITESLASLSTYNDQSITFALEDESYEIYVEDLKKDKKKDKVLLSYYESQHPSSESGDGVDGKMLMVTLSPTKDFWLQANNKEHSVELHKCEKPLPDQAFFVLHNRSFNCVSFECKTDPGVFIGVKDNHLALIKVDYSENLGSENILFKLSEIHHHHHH

human IL-33 (mm2) [5] = target: T1, human IL-33 (mm2)
human IL-33 WT (R&D) [6] = target: T2, human IL-33 WT (R&D); remark: listed apart in the source
[7] = target: T3, cynomolgus monkey IL-33 (cys mut)
[8] = target: T4, wild-type cynomolgus monkey IL-33
human IL-33 (mm2) [9] = target: T1, human IL-33 (mm2)
[10] = target: T3, cynomolgus monkey IL-33 (cys mut)
human IL-33 (mm2) [11] = target: T1, human IL-33 (mm2)
human IL-33 WT (R&D) [12] = target: T2, human IL-33 WT (R&D); remark: listed apart in the source
human IL-33 (mm2) [13] = target: T1, human IL-33 (mm2)
[14] = target: T3, cynomolgus monkey IL-33 (cys mut)
human IL-33 (mm2) [15] = target: T1, human IL-33 (mm2)
[16] = target: T3, cynomolgus monkey IL-33 (cys mut)
[17] = target: T5, native human IL-33 from human lung fibroblast (HFL-1) lysate (human, UniProt O95760 1-270, limits assumed)
T5 sequence (looked up): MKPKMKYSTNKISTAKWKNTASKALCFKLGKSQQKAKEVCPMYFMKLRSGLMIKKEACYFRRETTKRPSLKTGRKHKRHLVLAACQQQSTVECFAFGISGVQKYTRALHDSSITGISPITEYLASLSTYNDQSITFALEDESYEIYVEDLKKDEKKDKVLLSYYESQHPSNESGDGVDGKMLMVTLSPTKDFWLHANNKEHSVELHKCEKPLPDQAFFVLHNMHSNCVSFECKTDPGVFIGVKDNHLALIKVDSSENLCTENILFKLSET

human IL-33 (mm2) [18] = target: T1, human IL-33 (mm2)

B1: IL33-312 (antibody, human IgG1, lambda, V domains shown)
VH: EVQLLESGGGLVQPGGSLRLSCAASGFTFSSYAMSWVRQAPGKGLEWVSGISAIDQSTYYADSVKGRFTISRDNSKNTLYLQMNSLRAEDTAVYYCARQKFMQLWGGGLRYPFGYWGQGTMVTVSS
VL: SYVLTQPPSVSVSPGQTASITCSGEGMGDKYAAWYQQKPGQSPVLVIYRDTKRPSGIPERFSGSNSGNTATLTISGTQAMDEADYYCGVIQDNTGVFGGGTKLTVLG
- IC50, HEK293 ST2 NFkB (human IL-33 (mm2) [1]): 3 pM
- IC50, HEK293 ST2 NFkB (human IL-33 WT (R&D) [2]): 0.008 nM
- Cynomolgus monkey:human IC50 ratio: cysteine mutant IL-33 [3]: 1.1
- IC50, HEK293 ST2 NFkB [3]: 0.003 nM
- Cynomolgus monkey:human IC50 ratio: wild-type IL-33 [4]: 5.4
- IC50, HEK293 ST2 NFkB [4]: 0.043 nM

B2: IL33-313 (antibody, human IgG1, lambda, V domains shown)
VH: EVQLLESGGGLVQPGGSLRLSCAASGFTFSSYAMSWVRQAPGKGLEWVSGIADDFTSTYYADPVKGRFTISRDNSKNTLYLQMNSLRAEDTAVYYCARDLWMMNYAGGLRYPFGYWGQGTMVTVSS
VL: SYVLTQPPSVSVSPGQTASITCSGERMGDKYAAWYQQKPGQSPVLVIYRDTKRPSGIPERFSGSNSGNTATLTISGTQAMDEADYYCGVLKQDTGVFGGGTKLTVLG
- IC50, HEK293 ST2 NFkB (human IL-33 (mm2) [1]): 6 pM
- IC50, HEK293 ST2 NFkB (human IL-33 WT (R&D) [2]): 0.027 nM
- Cynomolgus monkey:human IC50 ratio: cysteine mutant IL-33 [3]: 206
- IC50, HEK293 ST2 NFkB [3]: 1.2 nM
- Cynomolgus monkey:human IC50 ratio: wild-type IL-33 [4]: 528
- IC50, HEK293 ST2 NFkB [4]: 14.1 nM

B3: IL33-265 (antibody, human IgG1, kappa, V domains shown)
VH: EVQLVESGGNLEQPGGSLRLSCTASGFTFSRSAMNWVRRAPGKGLEWVSGISGSGGRTYYADSVKGRFTISRDNSKNTLYLQMNSLSAEDTAAYYCAKDSYTTSWYGGMDVWGHGTTVTVSS
VL: DIQMTQSPSSVSASVGDRVTITCRASQGIFSWLAWYQQKPGKAPKLLIYAASSLQSGVPSRFSGSGSGTDFTLTISSLQPEDFAIYYCQQANSVPITFGQGTRLEIKR
- IC50, HEK293 ST2 NFkB (human IL-33 (mm2) [5]): 0.014 nM
- IC50, HEK293 ST2 NFkB (DTT-pretreated IL-33) (human IL-33 WT (R&D) [6]): 0.05 nM
- Cynomolgus monkey:human IC50 ratio: cysteine mutant IL-33 [7]: 109
- IC50, HEK293 ST2 NFkB [7]: 1.56 nM
- Cynomolgus monkey:human IC50 ratio: wild-type IL-33 [8]: 256
- IC50, HEK293 ST2 NFkB (DTT-pretreated IL-33) [8]: 12.7 nM

B4: IL33-55 (antibody, human IgG1, kappa, V domains shown)
VH: EVQLVESGGGLVQPGGSLRLSCAASGFTFSSYWMYWVRQAPGKGLEWVASITPNGGDTYYPDSVKGRFTISRDNAKNSLYLQMNSLRAEDTAVYYCARGHYYYTSYSLGYWGQGTLVTVSS
VL: DIQMTQSPSSLSASVGDRVTITCKASQNINKHLDWYQQKPGKAPKLLIYFTNNLQTGVPSRFSGSGSGTDFTLTISSLQPEDFATYYCFQYNNGWTFGGGTKVEIKR
- IC50, HEK293 ST2 NFkB (human IL-33 (mm2) [9]): 0.084 nM
- IC50, HEK293 ST2 NFkB [10]: 0.19 nM

B5: IL33-136 (antibody, human IgG1, kappa, V domains shown)
VH: EVQLVESGGGLVQPGGSLRLSCAASGFTFSSYWMYWVRQAPGKGLEWVASITPNGGETYYPDSVKGRFTISRDNAKNSLYLQMNSLRAEDTAVYYCARGHYYYTSYSLGYWGQGTLVTVSS
VL: DIQMTQSPSSLSASVGDRVTITCKASQNINKHLDWYQQKPGKAPKLLIYFTNNLQTGVPSRFSGSGSGTDFTLTISSLQPEDFATYYCFQYNQGWTFGGGTKVEIKR
- IC50, whole blood IFNγ (human IL-33 (mm2) [11]): 0.098 nM
- IC50, HEK293 ST2 NFkB WT IL-33 (human IL-33 WT (R&D) [12]): 0.037 nM

B6: IL33-56 (antibody, human IgG1, kappa, V domains shown)
VH: EVQLVESGGGLVQPGGSLRLSCAASGFTFSSYWMYWVRQAPGKGLEWVASITPNGGETYYPDSVKGRFTISRDNAKNSLYLQMNSLRAEDTAVYYCARGHYYYTSYSLGYWGQGTLVTVSS
VL: DIQMTQSPSSLSASVGDRVTITCKASQNINKHLDWYQQKPGKAPKLLIYFTNNLQTGVPSRFSGSGSGTDFTLTISSLQPEDFATYYCFQYNNGWTFGGGTKVEIKR
- IC50, HEK293 ST2 NFkB (human IL-33 (mm2) [9]): 0.053 nM
- IC50, HEK293 ST2 NFkB [10]: 0.104 nM

B7: IL33-68 (antibody, human IgG1, kappa, V domains shown)
VH: EVQLVESGGGLVQPGGSLRLSCAASGFTFSSYWMYWVRQAPGKGLEWVASITPNGGNTYYPDSVKGRFTISRDNAKNSLYLQMNSLRAEDTAVYYCARGHYYYTAYSLGYWGQGTLVTVSS
VL: DIQMTQSPSSLSASVGDRVTITCKASQNINKHLDWYQQKPGKAPKLLIYFTNNLQTGVPSRFSGSGSGTDFTLTISSLQPEDFATYYCFQYNNGWTFGGGTKVEIKR
- IC50, HEK293 ST2 NFkB (human IL-33 (mm2) [9]): 0.046 nM
- IC50, HEK293 ST2 NFkB [10]: 0.062 nM

B8: rat 30A1 (30A1 hybridoma) (antibody, V domains shown)
VH: QVNLLQSGATLVKPGASMKMSCKASGYSFTDYWVSWVKQSHGKSLEWIGEIYPNSGANNFNKEFKDKATLTVDKSTSTAYMELTRLTSEDSAVYYCTRGPYYYSSQIIFAYWGQGTLVTVSS
VL: IIVMTQSPKSMSISVGDRVTMNCKASQNVGNNIAWYRQKPGQSPELLIYYASNRYTGVPDRFTGGGYGTDFTLTINSVQAEDAAFYYCQRIYNSPPTFGGGTKVELK
- IC50, HEK293 ST2 NFkB (human IL-33 (mm2) [13]): 0.665 nM
- IC50, HEK293 ST2 NFkB [14]: 2.95 nM
- IC50, HEK293 ST2 NFkB (human IL-33 (mm2) [15]): 0.47 nM
- IC50, HEK293 ST2 NFkB [16]: 0.14 nM
- % inhibition 0.1 nM Ab, HEK293 ST2 NFkB [17]: 35.4%
- % inhibition 1 nM Ab, HEK293 ST2 NFkB [17]: 77.3%
- % inhibition 10 nM Ab, HEK293 ST2 NFkB [17]: 108%

B9: rat 30B11 (30B11 hybridoma) (antibody, V domains shown)
VH: QVKLLQSGAALVKPGASVKMSCATSGFSFTDYWVSWVKQSHGKGLEWIGEIYPNSGADNFNENFKGKATLTVDKSTSTAYMELSRLTSEDSAIYYCTRGPYYYSTQIIFAYWGQGTLVTVSS
VL: NIVMTQSPKSMSISVGDRVTMNCKASQNVGNNLAWYQQKPGQSPKLLIYYASNRYTGVPDRFTGGGYGTDFTLTINSVQAEDAAFYYCQRIYNSPPTFGGGTKVELR
- IC50, HEK293 ST2 NFkB (human IL-33 (mm2) [13]): 0.056 nM
- IC50, HEK293 ST2 NFkB [14]: 0.2 nM
- IC50, HEK293 ST2 NFkB (human IL-33 (mm2) [15]): 0.038 nM
- IC50, HEK293 ST2 NFkB [16]: 0.084 nM
- % inhibition 0.1 nM Ab, HEK293 ST2 NFkB [17]: 93.5%
- % inhibition 1 nM Ab, HEK293 ST2 NFkB [17]: 108%
- % inhibition 10 nM Ab, HEK293 ST2 NFkB [17]: 113%

B10: rat 7E8 (7E8 hybridoma) (antibody, V domains shown)
VH: EVQLVETGGGLVQPGRSLKLSCKTSGFTFSSYWMYWIRQAPGKGLEWVSSITPNGGNTYYPDSVKGRFTISRDNAENTIYLQMSSLRSEDTATYFCAKGHYYYTSYSLGYWGQGSLVTVSS
VL: EIQMTQSPSVLSASVGDRVTLSCKASQNINKHLDWYQQKLGEAPKLLIYFTNNLQTGIPSRFSGSGSGTDCTLTINSLQPGDVATYFCFQYNNGWTFGGGTKLELD
- IC50, HEK293 ST2 NFkB (human IL-33 (mm2) [13]): 0.018 nM
- IC50, HEK293 ST2 NFkB [14]: 0.21 nM
- IC50, HEK293 ST2 NFkB (human IL-33 (mm2) [18]): 0.024 nM
- IC50, HEK293 ST2 NFkB (human IL-33 (mm2) [15]): 0.043 nM
- IC50, HEK293 ST2 NFkB [16]: 0.032 nM
- % inhibition 0.1 nM Ab, HEK293 ST2 NFkB [17]: 112%
- % inhibition 1 nM Ab, HEK293 ST2 NFkB [17]: 110%
- % inhibition 10 nM Ab, HEK293 ST2 NFkB [17]: 113%

B11: rat 9B3 (9B3 hybridoma) (antibody, V domains shown)
VH: EVQLVETGGGLVQPGRSLKLSCVASGFTFSNYWMYWIRQAPGMGLEWVSSINNDGGNTYYLDSVKGRFTISRNNAENTVYLQMNSLRSEDTATYYCAKGHYSYSSYSFSYWGQGTLVTVSS
VL: DIQMTQSPSVLSASVGDRVTLSCKASHNINKHLDWCQQKVGEAPKLLIYFTNNLQTGIPSRFSGSGSGTDYTLTISSLQPEDVATYFCFQYNSGWTFGGGTKLELK
- IC50, HEK293 ST2 NFkB (human IL-33 (mm2) [13]): 0.076 nM
- % inhibition at 20 nM, HEK293 ST2 NFkB [14]: 23%
- IC50, HEK293 ST2 NFkB (human IL-33 (mm2) [15]): 0.17 nM
- IC50, HEK293 ST2 NFkB [16]: 2.72 nM
- % inhibition 0.1 nM Ab, HEK293 ST2 NFkB [17]: 55.1%
- % inhibition 1 nM Ab, HEK293 ST2 NFkB [17]: 99.2%
- % inhibition 10 nM Ab, HEK293 ST2 NFkB [17]: 108%
